Where no end group is shown, it is not given here.
B1: MACN-labeled peptide PAY33 (derived from copeptin) (peptide)
peptide: ATQLDGPAGALLLRLVQLAGAPEPFEPAQPDAY
modifications: also: MACN acridinium label, site not given here
B2: MACN-labeled peptide PSW44 (derived from proEndothelin) (peptide)
peptide: SSEEHLRQTRSETMRNSVKSSFHDPKLKGKPSRERYVTHNRAHW
modifications: also: MACN acridinium label, site not given here
B3: MACN-labeled peptide PPL41 (derived from NT-proANP) (peptide)
peptide: PEVPPWTGEVSPAQRDGGALGGGGRGPWDSSDRSALLKSKL
modifications: also: MACN acridinium label, site not given here
B4: MACN-labeled Peptide 45-92 (derived from pro-adrenomedullin) (peptide)
peptide: ELRMSSSYPTGLADVKAGPAQTLIRPQDMKGASRSPEDSSPDAARIRV
modifications: also: MACN acridinium label, site not given here

target: BSA+oligo-Lys conjugate (oligo-Lys peptide K14C coupled to bovine serum albumin) (bovine) (UniProt P02769); assay: MACN-labeled peptide in plasma matrix, 30 min in tubes coated with oligo-Lys-BSA to which the oligo-Asp-anti-PCT antibody was bonded; luminometer
Sequence of UniProt P02769 (P02769 25-607, stated change not applied): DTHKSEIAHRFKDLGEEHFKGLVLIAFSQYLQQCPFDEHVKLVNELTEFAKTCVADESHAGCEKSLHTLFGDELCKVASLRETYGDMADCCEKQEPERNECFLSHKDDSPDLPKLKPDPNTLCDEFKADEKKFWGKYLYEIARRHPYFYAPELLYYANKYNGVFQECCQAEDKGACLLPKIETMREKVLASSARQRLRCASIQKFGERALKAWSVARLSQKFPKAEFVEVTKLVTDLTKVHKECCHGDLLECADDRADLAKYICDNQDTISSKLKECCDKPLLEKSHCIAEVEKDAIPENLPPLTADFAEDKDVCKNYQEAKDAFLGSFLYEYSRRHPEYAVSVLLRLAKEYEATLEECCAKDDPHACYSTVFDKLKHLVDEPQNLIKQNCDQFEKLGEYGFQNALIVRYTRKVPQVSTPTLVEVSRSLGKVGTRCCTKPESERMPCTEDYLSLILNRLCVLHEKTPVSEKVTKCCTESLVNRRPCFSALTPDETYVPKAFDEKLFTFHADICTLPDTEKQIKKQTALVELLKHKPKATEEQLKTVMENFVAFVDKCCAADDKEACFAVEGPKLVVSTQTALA

| percentage of non-specific binding relative to the total activity [%] | Binder |
| --- | --- |
| 6.5 | B1 |
| 3 | B2 |
| 3.1 | B3 |
| 2.9 | B4 |
